Results reported in article doi:10.1101/2021.08.20.457084.
“And” between values parts separate entries of the source, which are not always exact repeats. Equal entries are not always repeated. Values belong to the substance of their own block, whether it stands above or below them.

Key:
[1] = target: CsGSIb EVK138DIQ mutant (Camellia sinensis); assay: SEC-MALS
[2] = target: CsGSIb EVK138DIQ mutant (Camellia sinensis); assay: AUC
[3] = target: CsGSIb I143L mutant (Camellia sinensis); assay: SEC-MALS
[4] = target: CsGSIb I143L mutant (Camellia sinensis); assay: AUC
[5] = target: glutamine synthetase CsGSIb from Camellia sinensis, wild type (Camellia sinensis); assay: SEC-MALS
[6] = target: glutamine synthetase CsGSIb from Camellia sinensis, wild type (Camellia sinensis); assay: negative-stain electron microscopy
[7] = target: glutamine synthetase CsGSIb from Camellia sinensis, wild type (Camellia sinensis); assay: AUC
[8] = target: glutamine synthetase CsGSIb from Camellia sinensis, wild type (Camellia sinensis); assay: cryo-EM structure
[9] = target: glutamine synthetase CsGSIb from Camellia sinensis, wild type (Camellia sinensis); assay: cryo-EM structure; remark: listed apart in the source
[10] = target: glutamine synthetase GmGSβ2 from Glycine max (Glycine max); assay: SEC-MALS
[11] = target: glutamine synthetase GmGSβ2 from Glycine max (Glycine max); assay: negative-stain electron microscopy
[12] = target: glutamine synthetase GmGSβ2 from Glycine max (Glycine max); assay: cryo-EM structure

percent of the protein in the decameric state [1]: 72% | stoichiometry N [1]: 10 | Kd [2]: 0.04 µM
Substance: CsGSIb EVK138DIQ mutant (enzyme)

percent of the protein in the decameric state [3]: > 95% | stoichiometry N [3]: 10 | Kd [4]: 0.01 µM
Substance: CsGSIb I143L mutant (enzyme)

percent of the protein in the decameric state [5]: 18% | percent of the protein in the pentameric state [5]: 82% | stoichiometry N [5]: 5 and 10 | stoichiometry N [6]: 5 and 10 | Kd [7]: 0.27 µM | stoichiometry N [7]: 10 and 5 | stoichiometry N [8]: 10 | stoichiometry N [9]: 5
Substance: glutamine synthetase CsGSIb from Camellia sinensis, wild type (enzyme)

stoichiometry N [10]: 10 | stoichiometry N [11]: 10 | stoichiometry N [12]: 10
Substance: glutamine synthetase GmGSβ2 from Glycine max (enzyme)
